We go through one molecule from patent US20240272171A1, “Methods for Identification of Exchangeable MHC Binding Peptides and Methods of Use Thereof” (PhenomeX Inc., priority 2020, published 2024).

This experiment concerns the target HLA-A*02:01 MHC Class I complex (recombinant, biotinylated) (human). The experiment is described as follows: displacement of the FITC-labelled in-place peptide from 1 uM HLA-A*02:01; competitor: incoming peptide [..] at 20 uM with 10 mM GlyCha, 4 h at room temperature; FITC on streptavidin capture beads by flow cytometry. Background: A flow cytometer gives signals particle by particle.

With GMGQKDSYV (modifications not checked) [EP3 … (SEQ ID NO: 1), FITC-labelled in-place peptide GMGQ{Lys(FITC)}DSYV], the exchange efficiency is 1.
